Experimental data taken from paper PMC12700104.

Target: YxiD^CTD (C-terminal domain of YxiD, Pro428-Pro534), Bacillus subtilis 6633 (Bacillus subtilis 6633 (Bacillus subtilis subsp. spizizenii ATCC 6633))
Experiment: ITC; 15 uM YxiD^CTD in the cell titrated with 150 uM YxxD in the syringe; 25°C; 20 mM HEPES pH 7.5, 150 mM NaCl; OneSite binding model

B1: YxxD immunity protein, Bacillus subtilis 6633 (natural protein)
chain: MSYNFIKSNKENDFYPVNQSEIEEVEKNLNLKLPSELVNFYLEVGYGFIKGSEFNTNRILDPYSVRDFRLRINDFEFYPDIEIYDEFENDKLIFFEGSESALMSIELNDNNKNPIYYYDIQIATSLTEFLRKIEENDQYYLDLLDDE
Kd: 9.4 nM | dH: -10.2 kcal/mol | stoichiometry N: 0.975 sites
